Assay results taken from US20150344937A1.

Target: murine CD4 (murine) (UniProt P06332)
Test: quantitative flow cytometry on murine splenocytes, BD QuantiBrite PE microspheres as standard

Sequence of UniProt P06332 (P06332 27-457): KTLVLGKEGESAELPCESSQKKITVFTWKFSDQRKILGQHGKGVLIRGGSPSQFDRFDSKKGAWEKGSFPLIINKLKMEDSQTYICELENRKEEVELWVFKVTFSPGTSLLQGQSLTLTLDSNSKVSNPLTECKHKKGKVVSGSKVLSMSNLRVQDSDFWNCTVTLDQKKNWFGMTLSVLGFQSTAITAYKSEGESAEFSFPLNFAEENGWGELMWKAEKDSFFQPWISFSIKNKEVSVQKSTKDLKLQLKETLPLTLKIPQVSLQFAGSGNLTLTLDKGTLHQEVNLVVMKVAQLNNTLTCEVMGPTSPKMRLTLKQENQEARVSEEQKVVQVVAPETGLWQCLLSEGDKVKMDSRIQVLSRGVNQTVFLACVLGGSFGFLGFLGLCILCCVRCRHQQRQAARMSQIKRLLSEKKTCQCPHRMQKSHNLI

Substance “Commercially prepared anti-CD4 (clone GK1.5, phycoerythrin conjugate) (antibody)” has an Antibody Binding per Cell (ABC) (CD4 antibody per cell) of 29700.
